Reference: patent US20160002326A1 (AbbVie / Abbott, published 2016)
Numbering of substitutions follows the chain as printed. Names and notes keep the numbering of the source.

What was measured:
Fcγ RI = target: T1, Fcγ RI (UniProt P12314 16-288, limits assumed); assay: Biacore
T1 construct: also called FcγR1

Fcγ RIIa, variant 131H = target: T2, Fcγ RIIa, variant 131H (UniProt P12318 36-218, limits assumed); assay: Biacore
T2 construct: also called FcγRIIa 131H
T2 sequence (looked up): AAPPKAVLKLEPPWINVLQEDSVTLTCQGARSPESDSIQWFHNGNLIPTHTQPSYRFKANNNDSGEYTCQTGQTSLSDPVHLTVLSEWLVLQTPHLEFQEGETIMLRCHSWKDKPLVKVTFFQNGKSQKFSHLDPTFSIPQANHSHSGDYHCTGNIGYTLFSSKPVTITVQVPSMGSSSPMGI

Fcγ RIIa, variant 131R = target: T3, Fcγ RIIa, variant 131R (UniProt P12318 36-218, limits assumed); assay: Biacore
T3 construct: also called FcγRIIa 131R
T3 sequence (looked up): T2 sequence (looked up) with H132R

Fcγ RIIb = target: T4, Fcγ RIIb (UniProt P31994 46-217, limits assumed); assay: Biacore
T4 sequence (looked up): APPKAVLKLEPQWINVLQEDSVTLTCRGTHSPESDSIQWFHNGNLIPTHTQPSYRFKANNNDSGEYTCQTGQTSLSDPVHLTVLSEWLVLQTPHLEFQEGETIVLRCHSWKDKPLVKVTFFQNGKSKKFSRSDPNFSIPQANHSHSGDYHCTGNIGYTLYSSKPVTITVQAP

Fcγ RIIIa, variant 158F = target: T5, Fcγ RIIIa, variant 158F (UniProt P08637 17-208); assay: Biacore
T5 construct: also called FcγRIIIa 158F
T5 sequence (P08637 17-208 limits assumed, change not shown): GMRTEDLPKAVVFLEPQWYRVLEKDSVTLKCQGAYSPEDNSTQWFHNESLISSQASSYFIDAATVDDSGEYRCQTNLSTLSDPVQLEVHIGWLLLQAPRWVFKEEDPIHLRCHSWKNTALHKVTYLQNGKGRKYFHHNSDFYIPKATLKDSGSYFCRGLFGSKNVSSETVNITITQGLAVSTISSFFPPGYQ

APRIL = target: T6, APRIL (UniProt O75888 105-250); assay: direct ELISA
T6 sequence (looked up): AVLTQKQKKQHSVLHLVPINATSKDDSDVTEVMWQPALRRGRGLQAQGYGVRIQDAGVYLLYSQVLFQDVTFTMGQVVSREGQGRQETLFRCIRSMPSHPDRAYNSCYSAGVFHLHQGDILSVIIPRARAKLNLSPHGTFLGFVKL

CD40 ligand = target: T7, CD40 ligand (UniProt P29965 113-261, limits assumed); assay: direct ELISA
T7 sequence (looked up): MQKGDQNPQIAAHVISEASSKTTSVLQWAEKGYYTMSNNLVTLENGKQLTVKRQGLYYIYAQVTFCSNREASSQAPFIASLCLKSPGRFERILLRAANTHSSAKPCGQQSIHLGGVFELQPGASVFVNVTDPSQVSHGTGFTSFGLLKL

human TNF-α [1] = target: T8, human TNF-α (human, UniProt P01375 77-233); assay: cell-based or functional assay
T8 sequence (P01375 77-233 limits assumed): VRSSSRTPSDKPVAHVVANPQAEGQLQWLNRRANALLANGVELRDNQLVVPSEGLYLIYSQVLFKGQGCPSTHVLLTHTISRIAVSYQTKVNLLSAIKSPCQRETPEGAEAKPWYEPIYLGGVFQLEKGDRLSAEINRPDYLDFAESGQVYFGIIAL

human IL-17A/A homodimer = target: T9, human IL-17A/A homodimer (human, UniProt Q16552 24-155); assay: cell-based or functional assay
T9 sequence: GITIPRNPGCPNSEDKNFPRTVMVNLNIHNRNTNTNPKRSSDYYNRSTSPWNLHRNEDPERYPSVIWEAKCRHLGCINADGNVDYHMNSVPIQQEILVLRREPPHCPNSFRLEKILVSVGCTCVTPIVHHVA

[2] = target: T10, human IL-17A/F heterodimer (human, UniProt Q16552 24-155; Q96PD4 31-163); assay: cell-based or functional assay
T10 sequence 1: T9 sequence
T10 sequence 2: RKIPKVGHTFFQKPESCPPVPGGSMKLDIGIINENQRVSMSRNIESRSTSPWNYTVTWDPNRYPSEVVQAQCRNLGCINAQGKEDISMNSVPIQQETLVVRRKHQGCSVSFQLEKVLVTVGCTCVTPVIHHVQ

human TNF-α [3] = target: T8, human TNF-α; assay: Biacore SPR, recombinant antigen, mean of 3 experiments; exponent as printed

T1 sequence (P12314 16-288 limits assumed): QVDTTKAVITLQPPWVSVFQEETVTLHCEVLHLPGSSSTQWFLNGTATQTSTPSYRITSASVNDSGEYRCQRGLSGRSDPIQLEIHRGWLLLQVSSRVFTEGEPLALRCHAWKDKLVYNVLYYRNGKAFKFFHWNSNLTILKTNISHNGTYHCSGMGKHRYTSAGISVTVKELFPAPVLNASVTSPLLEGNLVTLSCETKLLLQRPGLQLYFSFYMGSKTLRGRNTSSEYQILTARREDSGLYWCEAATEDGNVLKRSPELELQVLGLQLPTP

B1: ABBV-257 anti-human TNF and IL-17 DVD-Ig binding protein (bispecific antibody, human IgG1, kappa, L234A L235A)
heavy: EVQLVQSGAEVKKPGASVKVSCKASGYTFANYGIIWVRQAPGQGLEWMGWINTYTGKPTYAQKFQGRVTMTTDTSTSTAYMELSSLRSEDTAVYYCARKLFTTMDVTDNAMDYWGQGTTVTVSSGGGGSGGGGSEVQLVQSGAEVKKPGSSVKVSCKASGYTFTDYEIHWVRQAPGQGLEWMGVNDPESGGTFYNQKFDGRVTLTADESTSTAYMELSSLRSEDTAVYYCTRYSKWDSFDGMDYWGQGTTVTVSSASTKGPSVFPLAPSSKSTSGGTAALGCLVKDYFPEPVTVSWNSGALTSGVHTFPAVLQSSGLYSLSSVVTVPSSSLGTQTYICNVNHKPSNTKVDKKVEPKSCDKTHTCPPCPAPEAAGGPSVFLFPPKPKDQLMISRTPEVTCVVVDVSHEDPEVKFNWYVDGVEVHNAKTKPREEQYNSTYRVVSVLTVLHQDWLNGKEYKCKVSNKALPAPIEKTISKAKGQPREPQVYTLPPSREEMTKNQVSLTCLVKGFYPSDIAVEWESNGQPENNYKTTPPVLDSDGSFFLYSKLTVDKSRWQQGNVFSCSVLHEALHNHYTQKSLSLSPGK
light: DIQMTQSPSSLSASVGDRVTITCRASQDISQYLNWYQQKPGKAPKLLIYYTSRLQSGVPSRFSGSGSGTDFTLTISSLQPEDFATYFCQQGNTWPPTFGQGTKLEIKRGGSGGGGSGDIQMTQSPSSLSASVGDRVTITCRASSGIISYIDWFQQKPGKAPKRLIYATFDLASGVPSRFSGSGSGTDYTLTISSLQPEDFATYYCRQVGSYPETFGQGTKLEIKRTVAAPSVFIFPPSDEQLKSGTASVVCLLNNFYPREAKVQWKVDNALQSGNSQESVTEQDSKDSTYSLSSTLTLSKADYEKHKVYACEVTHQGLSSPVTKSFNRGEC
modifications: N-linked glycans on the heavy chain at the asparagine commonly modified on IgG1 antibodies (fucosylated biantennary oligosaccharides with 0, 1 or 2 galactose residues)
notes: It says the constant region carries L234A, L235A and also T250Q and M428L; also called Anti-IL-17/TNF DVD-Ig Protein
**Q.** What does the source list for B1?
**A.** binding result (Fcγ RI): no binding; binding result (Fcγ RIIa, variant 131H): no binding; binding result (Fcγ RIIa, variant 131R): no binding; binding result (Fcγ RIIb): no binding; binding result (Fcγ RIIIa, variant 158F): no binding; binding result (APRIL): no binding; binding result (CD40 ligand): no binding; Mean IC50, inhibition of TNF-induced lethality of L929 cells (human TNF-α [1]): 0.025 nM; Mean IC50, inhibition of IL-17 dependent induction of IL-6 in fibroblasts (human IL-17A/A homodimer): 0.026 nM; Mean IC50, inhibition of IL-17 dependent induction of IL-6 in fibroblasts [2]: 0.11 nM; koff (human TNF-α [3]): 1.6e-05 s⁻¹
